T1: human FKBP51 (human, UniProt Q13451 1-457)
T1 construct: FKBP51, human; The His6 tag is cleavable; source: bacterial expression plasmid pET151, purified
T1 sequence: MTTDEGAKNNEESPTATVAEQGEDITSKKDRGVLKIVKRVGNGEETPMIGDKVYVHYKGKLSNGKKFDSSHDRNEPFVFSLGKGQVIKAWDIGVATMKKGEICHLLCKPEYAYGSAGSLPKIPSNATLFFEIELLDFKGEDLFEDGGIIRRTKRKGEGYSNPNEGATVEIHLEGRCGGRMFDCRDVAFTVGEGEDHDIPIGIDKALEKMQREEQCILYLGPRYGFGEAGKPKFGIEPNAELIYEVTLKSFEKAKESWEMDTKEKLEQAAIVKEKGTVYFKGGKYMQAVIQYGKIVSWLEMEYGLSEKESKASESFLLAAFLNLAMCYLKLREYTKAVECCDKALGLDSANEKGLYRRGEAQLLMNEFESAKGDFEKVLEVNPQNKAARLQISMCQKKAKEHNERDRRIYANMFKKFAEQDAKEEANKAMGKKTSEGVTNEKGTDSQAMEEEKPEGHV

B1: human GR DBD-LBD (residues 418-777, F602S) (domain or fragment, UniProt P04150 418-777, looked up)
chain: PKLCLVCSDEASGCHYGVLTCGSCKVFFKRAVEGQHNYLCAGRNDCIIDKIRRKNCPACRYRKCLQAGMNLEARKTKKKIKGIQQATTGVSQETSENPGNKTIVPATLPQLTPTLVSLLEVIEPEVLYAGYDSSVPDSTWRIMTTLNMLGGRQVIAAVKWAKAIPGFRNLHLDDQMTLLQYSWMSLMAFALGWRSYRQSSANLLCFAPDLIINEQRMTLPCMYDQCKHMLYVSSELHRLQVSYEEYLCMKTLLLLSSVPKDGLKSQELFDEIRMTYIKELGKAIVKREGNSSQNWQRFYQLTKLLDSMHEVVENLLNYCFQTFLDKTMSIEFPEMLAEIITNQIPKYSNGNIKKLLFHQK
notes: glucocorticoid receptor, human; codon optimized; The His6-MBP tag is cleavable; the complex was pulled down on MBP-GR DBD-LBD; Only the LBD was visible in the maps; also called glucocorticoid receptor; MBP-GR DBD-LBD; source: E. coli BL21 star (DE3), purified (Ni-NTA, size exclusion); not shown: MBP, N-terminal, kept
B2: human FKBP52 (natural protein)
chain: MTAEEMKATESGAQSAPLPMEGVDISPKQDEGVLKVIKREGTGTEMPMIGDRVFVHYTGWLLDGTKFDSSLDRKDKFSFDLGKGEVIKAWDIAIATMKVGEVCHITCKPEYAYGSAGSPPKIPPNATLVFEVELFEFKGEDLTEEEDGGIIRRIQTRGEGYAKPNEGAIVEVALEGYYKDKLFDQRELRFEIGEGENLDLPYGLERAIQRMEKGEHSIVYLKPSYAFGSVGKEKFQIPPNAELKYELHLKSFEKAKESWEMNSEEKLEQSTIVKERGTVYFKEGKYKQALLQYKKIVSWLEYESSFSNEEAQKAQALRLASHLNLAMCHLKLQAFSAAIESCNKALELDSNNEKGLFRRGEAHLAVNDFELARADFQKVLQLYPNNKAAKTQLAVCQQRIRRQLAREKKLYANMFERLAEEENKAKAEASSGDHPTDTEMKEEQKSNTAGSQSQVETEA
notes: FKBP52 (gene FKBP4), human; The His6 tag is cleavable; source: bacterial expression plasmid pET151, purified

Legend:
Details in all cases: both partners purified
[1] = biological target: T1, human FKBP51; assay: cryo-EM structure; GR chaperone cycle reconstituted in vitro from purified components (GR DBD-LBD, Hsp70, Hsp40, Hop, Hsp90, p23, Bag-1) with FKBP51; 20 mM sodium molybdate; pulldown on MBP-GR DBD-LBD, size exclusion, 0.02% glutaraldehyde crosslinking; datasets III and IV
[2] = biological target: B2; assay: cryo-EM structure; GR chaperone cycle reconstituted in vitro from purified components (GR DBD-LBD, Hsp70, Hsp40, Hop, Hsp90, p23, Bag-1) with FKBP52; 20 mM sodium molybdate; pulldown on MBP-GR DBD-LBD, size exclusion, 0.02% glutaraldehyde crosslinking; datasets I and II
[3] = biological target: T2, human Hsp90α (human, UniProt P07900 1-732); assay: as above
T2 construct: Hsp90α, human; also called Hsp90A; Hsp90B (the two protomers of the dimer)

| binding result [1] | binding result [2] | binding result [3] | Binder |
| --- | --- | --- | --- |
| binds | binds | binds | B1 |
| – | – | binds | B2 |

Source: paper PMC10716051, “Cryo-EM reveals how Hsp90 and FKBP immunophilins co-regulate the glucocorticoid receptor” (Nature Structural & Molecular Biology, 2023)
